Assay: soluble on expression in E. coli; label from the status in PepcDB or PDB records

Row | Sequence | soluble on expression in E. coli
1 | YAEIRARLYLMTGQTNKALNELRRLCNRFPEVNEFRLKYAGTLLDSEKYDEAYEQLQLIARTDSTSGLYHFAMASYYLGTNEKEAAINEMIKVAADKDVAPEQKLPIILRFIGTDTDEEDAPKKEYNILLEKILASHPTEVDARLFYAELLEMQGDSIHAMEVCRPITEFAPKEERAWKFMLGRAVTGQNHTEVHRISEQARQYLPGVPLFYLYDAISYYIEKKGSEAKHILQEALEHIDAEKDPNGLSDIYSQLGDLAYEENKPEEAFANYEKALELNPRNVGVLNNYAYFLAKEGGDLAKAERMAAQCVKLLPDNAVSLDTYGWVFFLRENYTLAKLYIEKALGLAADNPDADVVEHHGDVLYMLGEKEKAMLEWKRAKEIGGGGSPMLDKKIEQGKYIPEKKK | not soluble
2 | MKIALINENSQASKNHIIYDSLKEATDKKGYQLFNYGMRGEEGESQLTYVQNGLMAAILLNTKAVDFVVTGCGTGVGAMLALNSFPGVVCGLAVDPTDAYLYSQINGGNALSIPYAKGFGWGAELTLKLMFERLFAEEMGGGYPRERVIPEQRNARILNEVKQITHNDLMTILKIIDQDFLKDTISGKYFQEYFFENCQDDEVAAYLKEVLA | not soluble
3 | MSGVRAVRISIESACEKQVHGVGLDGTETYLPPLSMSQNLARLAQRIDFSQGSGSEEGEAAGTEGDAQDWPGAGSSADQDDEEGVVKFQPSLWPWDSVRNNLRSALTEMCVLYDVLSIVRDKKFMTLDPVSQDALPPKQVFVDFNLEHHHHHH | not soluble
4 | MTKSQKQTKQYLRIFDQQMSLYEHYARKNSLQSKSLFILLWLYYNPQGITQKQIVEKTYSTKQVVNATLKRWNEKNYIVFLKSQTDRREKKIILSSQGQEYAASIIAPLEKMEEAAFNSLSIQEQQTMIQLTGHYYQALLSQMQLYFVQGEGEKATKEKL | not soluble
5 | MAHHHHHHMKFTISTSIEDVLFKGGFRVKEMRLNDFLTVIFGGRSILRANRSVLLRDFFSDPTRYIHDAGVLNEIQATGAYARMEEAVRDEIIFEEDRSKLRDKGVINLLGWSEAAANVKTTVHNNNKNSLDAALEEARNPTTTSTPIYLEGCYESVYNAKWHHLVEVPGGEGTGMDVEEGEPPQS | not soluble
6 | MHHHHHHSENTFIFPATFMWGTSTSSYQIEGGTDEGGRTPSIWDTFCQIPGKVIGGDCGDVACDHFHHFKEDVQLMKQLGFLHYRFSVAWPRIMPAAGIINEEGLLFYEHLLDEIELAGLIPMLTLYHWDLPQWIEDEGGWTQRETIQHFKTYASVIMDRFGERINWWNTINEPYCASILGYGTGEHAPGHENWREAFTAAHHILMCHGIASNLHKEKGLTGKIGITLNMEHVDAASERPEDVAAAIRRDGFINRWFAEPLFNGKYPEDMVEWYGTYLNGLDFVQPGDMELIQQPGDFLGINYYTRSIIRSTNDASLLQVEQVHMEEPVTDMGWEIHPESFYKLLTRIEKDFSKGLPILITENGAAMRDELVNGQIEDTGRQRYIEEHLKACHRFIEEGGQLKGYFVWSFLDNFEWAWGYSKRFGIVHINYETQERTPKQSALWFKQMMAKNGF | soluble
7 | MQKIKVQDAIGSVLMHDLTQIIPGKTKDARFRKGHVIKEEDIPTLLSMGKEHIFVWDQTPGLIHEDEAAERLAKAVAGPGLSFSETKEGKVNLIAEEDGLIYASEEGIYALNSLEYIILATLHNHRPVKKGQKIAGTRVVPLMIDENVVIEAEGIARRFEEPILQIRPLQSKKVGVVTTGSEVYHGRIQDKFGPVLQRKVAEWGSVLLGQTFADDDVEMIQERIREHIEQGAEMVLVTGGMSVDPDDLTPTAIKGLGGRVDHLWHSCSSRSHAVAGLPGLEHHHHHH | not soluble
8 | MGSDKIHHHHHHLLQRTFNIQHHSSLPLLSILSYFPTSLLKPGGRMAIVLPQGRFNNSSDKNIRDFIAERCRILAVVGLHGNTFKPHTGTKTSVLFVQKWNDDPKAGALCPRQDDYNIFFATMRKSGKDNSGDKIWRKISSSTASPPDDELSDLMPPSPVQRVVGVEGDFLRDNHEHLVVDHDLYNHEGKTEDGIAEAFIEFAKKENFSFFELSPSVTPFDAVKYQQLMDGLEAVEVSLNQALDHNLHFRFDSEFFKRIYFQVEAEIKALPHTRLSSTQPIIIHPTEIKREYVEDDSSGVLFFRTQNLRPLRVDLSNQVYISEEDAAKLSKNIIQKNDVLITITGANFGDTLIFKGEIEAIALSHVFILRNKKISQSFLAVFLNTFYGREQINKGMYGGV | not soluble
9 | MGHHHHHHSHVSRHYCPTCCYPMNACLCSHLQQIKPQTQLLVLQHPSEVEHKKNSVRVLSLVIPDTQVYVGESEADFAALRAQLSRCQRPIYLVYPSEQSASVESQSICVDCVLLLIDGTWRKAFKILQLNPWLAQFPAVHLAQGYASRYKIRKSSRSDSLSTLEASAYMLKALDDGLDVSPLLAAFDAMVAMRLQAMPAEVRLRYD | not soluble
10 | DITERHAREQKLREERAVIQQALDALDEPLFVTDIDGRLKHCNHRALELTGNTEETAVGTPITALFPDEERETIADAVDDALRTGRTTITASLCLDSGQQQRYEFRAHSLTDLDNNTAGLVILGQDVS | not soluble
11 | MSLYNKVLIIDDHPVLRFAVRVLMEKEGFEVIGETDNGIDGLKIAREKIPNLVVLDIGIPKLDGLEVIARLQSLGLPLRVLVLTGQPPSLFARRCLNSGAAGFVCKHENLHEVINAAKAVMAGYTYFPSTTLSEMRMGDNAKSDSTLISVLSNRELTVLQLLAQGMSNKDIADSMFLSNKTVSTYKTRLLQKLNATSLVELIDLAKRNNLAEGHHHHHH | not soluble
12 | EVKLVESGGGLVKPGGSLKLSCAASGFTFSRYALSWVRQTADKRLEWVASIVSGGNTYYSGSVKGRFTISRDIARNILYLQMSSLRSEDTAMYYCARAYYGYVGLVHWGQGTLVTVSSAKTTPPSVYPLAPGSAAQTNSMVTLGCLVKGYFPEPVTVTWNSGSLSSGVHTFPAVLQSDLYTLSSSVTVPSSTWPSETVTCNVAHPASSTKVDKKIVPRDCG | soluble
13 | YIGSGASQPNRTDVVWMVPSWTCKNEYSIDVEKYGILQNEDQHFVGGKQFAIFYEHSFGKIPYFKAQNESDPKNGGLPQMGDLEAHLIQAEKDINETIPDENFNGIAVIDIEEFRPMWELSWGPFSVYKTESIRLTRQQHPYWSTKQIEWQAERDYEKACQKFFIETLRLGKRLRPNAKWGYYLFPKCNGDVGQKSDTDCSTLFQKFNDNLHWLWGESTALFPSIYLYPSQKQNPEYNFVNSGALITETKRIKRNYCPSCEIHVFTKIEYNPYYTPDDFYSKQNLASTLDLAIKMNANSVVIWSTSQSIGSRCGSLQTYVDNTLGPYLQLTDRNLD | not soluble
14 | MADSNDLMSEFQKLQQETSKIQSHLTKDFLSSSAKLSENRVLQATQELCGKLTEKQKVQDDTINLLLSALGQIQENQNKILNQFASMQSQLDIVKRRQDAYERDLIQQKPSVPEQKVGESSKKSPRSAESALKYVETCTKVVDLCIAVSMPGRLFSIGANKMESVEQLKMKIECQTGIPRTKFWLRLHGKPLYDDKKLADYKWDTSVELLVRAS | not soluble
15 | MLEIKGLRARIVGTNTEVIRGLNLTVADGEVAAIMGQNGAGKSTLSYLLAGRDDYEVIDGDILYNGQSLLEMDPAERAAYGVFLAFQYPMEIPGVATMEFLKVAMNSQRKARGDQELKIPEFIKCVKEISSKLEINMDMLKRPLNVGFSGGEKKRAEILQMALLEPKLCILDETDSGLDIDALKIVADGVNKLRDPKRSFLVITHYQRLLNYIIPDTVHVLYKGRIIKSGDKSLALYLEQNGYADLIREAA | not soluble
16 | ILLLLLSLFLGLSSQAQEDSLQANRYVMRATLYGAGFTNILDTYLSPMEYTGPEIRILRESMRMTKLMNGNVSVQSLFQANLSLTENKAETSNEMAGMVNWNYALHYQFRLTENLKILAGPMLDLNGGFIYNMRNSNNPAQAKAYVNLAASGMVIYRFHIGNYPLIARYQANLPVMGIMFSPEYGQSYYEIFSLKNGGKNVLFTSLHNQPSLRQLVTLDFPIRSVNMRFGYLCDIQQAKVNNLKSHIWSHAFMIGFVKNFYLLKGKNKVAMPSRVSPY | not soluble
17 | MGSDKIHHHHHHMTGNDWIGSALHNSITCMGHSAAALAAPFAQASRRLIATLQAGGQVLSCGNGGSSGDAQHLASELVNRFETTRRALPAIALSTDSSVVTAIANDVCYEQIFARQIEALGRPGDCLVAFSTSGNSTNVIAAARTAQQRGMWVLALTGKEGGQLALLLRPVDIELRVPEQNTARIQEVHLVLIHALCSGVDASFVGDAPASVFHTGQVLRDWEALDEACTFRRPLVFTNGVFDVLHRGHVQYLAEARAEGACLVVGVNSDASVRRLGKGADRPVNSEEDRMAVLAGLQAVDFVTVFDDDTPLKLIQHLQPDVLIKGGDWPIERIVGADWVQAGGGRVLSIPFRHERSTTALLQKIRGSQP | not soluble
18 | MGAAKPIFVEHSIVIDRPAQQVYDYWRKLENLPQIMSHLESVTVLDDKRSRWVAKAPLGTHVEWEAEVVNDKPGERIGWHSLPGATVDNAGSVQFESLPDDKTRVHVALSYRPPAGPLGAAVAKLFGEEPSQQIAEDLQKFKATFEGLEHHHHHH | not soluble
19 | MSLSDARLVADLSDVFTDIGVEHAVSGAQIEEFVARMPEVGHSLVAVHRRLRAATEELEGYRSRATAETELPPARPMPFEEVRDFFYDRNNYIHDLDMAAERMFTESGMRTGGLDIQLAELMRDRFGISVVIDDNLPDTAKRRYHPDTKVLRVAHWLMPGQRAFQIATQLALVGQSDLISSIVATDDQLSTEARGVARIGLANYFAGAFLLPYREFHRAAEQLRYDIDLLGRRFGVGFETVCHRLSTLQRPRQRGIPFIFVRTDKAGNISKRQSATAFHFSRVGGSCPLWVVHDAFAQPERIVRQVAQMPDGRSYFWVAKTTAADGLGYLGPHKNFAVGLGCDLAHAHKLVYSTGVVLDDPSTEVPIGAGCKICNRTSCAQRAFPYLGGRVAVDENAGSSLPYSSTEQSVEGHHHHHH | soluble
20 | MLASAILPVVSFAESDPLDVLLKKLEEKGVITKEEAKEVKKVAKKHPHLKVKIRLQPRIDFGDIYKENNDYKSRSDFYFRRVRLEISKEWKNIPFGKKLKINFTLHSDKGERDYDYKKGEKEHHSFDPKVKYAYADWTFVDEFAVRIGKNKIPYSRVSLTSSSRQLLIERPYVTEDAKKWLGDYDSNQIMFHGKVAGGIFRYMLSIWDGSTIESKNKTGGTVKADTSLGDAYAIRLEFSPPGFVEKKKDDTGIGEKNKGDVISVGLNYAKNSDFDITDKNIKNEEATVWGGDIFGRFHLGPGALVAQAEYVKMKYDKLDLEEKGYYIQAGYLIPTPYGKFEPAARYEHFKQEDKKNDVTKHKKDIITLGFNHYIKGHKIKWGYNVLFIDNKEKDEKDQTVHQIQMQFYF | not soluble
21 | MGSDKIHHHHHHMYRTAIEELHRWKAKRNKKPLIIRGARQVGKTWLMKEFGRVAFAKTVYISLDNNRRMKELFSADLDVERIVTGLELYSGQKIDPANTLLIFDEVQEVPTALTSLKYFNENAPQYQIISAGSLLGVALHQGTSFPVGKVEFLDLYPLSFTEFLNAMDKGRYVELLQKGDFDMIATFKQTYVDMLKYYYYVGGMPEVVQSFSETKDFGEVREIQQRILDAYEQDFSKHAPHDVVPRIRMLWNSIPAQLTKENKKFIYGLIKEGARAKEYEQSMLWLTDCGLVHKVHRVNAPSLPLKAYEDLKAFKLFLVDIGLLSCMVRLNQGTLLDGNELFKEFKGALTEQYVLQQLRTLKELEAYYWTNDRGSAEIDFVVDDGHKVIPIEVKAETNLKAKSLKMYQEKFRPELSIRASMADYRRENRLLNLPLYMVEMMGLLLKEAE | not soluble
22 | GMGIHQYFQSLSDLENIYRCPGKFKYQEHSVAEHSYKVTSIAQFFGAVEEDAGNEVNWRALYEKALNHDYSELFIGDIKTPVKYATTELREMLSEVEESMTKNFISREIPATFQPIYRHLLKEGKDSTLEGKILAISDKVDLLYESFGEIQKGNPENIFVEIYSEALATIYEYREMASVKYFLKEILPDMLAEKGIEKTELPQLTTEITTKALRDE | soluble

From the DeepSol protein solubility set
